Key:
Assay in all cases: cell-based or functional assay
[1] = biological target: HIV-1 MGRM-G-001 Env (HIV-1)
[2] = biological target: HIV-1 92TH021 Env (HIV-1)
[3] = biological target: HIV-1 MGRM-G-017 Env (HIV-1)
HIV-1 APV-17 Env (HIV-1) = biological target: HIV-1 APV-17 Env (HIV-1)
[4] = biological target: HIV-1 93TH305 Env on pseudovirus (HIV-1)
[5] = biological target: HIV-1 MGRM-AE-004 Env (HIV-1)
[6] = biological target: HIV-1 MGRM-D-026 Env (HIV-1)
[7] = biological target: HIV-1 MGRM-C-015 Env on pseudovirus (HIV-1)
[8] = biological target: HIV-1 MGRM-C-006 Env on pseudovirus (HIV-1)
[9] = biological target: HIV-1 MGRM-AE-006 Env (HIV-1)
[10] = biological target: HIV-1 MGRM-D-003 Env (HIV-1)
[11] = biological target: HIV-1 MGRM-Chronic-B-024 Env on pseudovirus (HIV-1)
[12] = biological target: HIV-1 6535.3 (Acute) Env on pseudovirus (HIV-1)
[13] = biological target: HIV-1 MGRM-G-006 Env (HIV-1)
[14] = biological target: HIV-1 LAVI_C22 Env on pseudovirus (HIV-1)
[15] = biological target: HIV-1 MGRM-G-025 Env (HIV-1)
[16] = biological target: HIV-1 MGRM-C-002 Env on pseudovirus (HIV-1)
[17] = biological target: HIV-1 MGRM-F1-018 Env (HIV-1)
[18] = biological target: HIV-1 MGRM-AE-007 Env (HIV-1)
[19] = biological target: HIV-1 MGRM-F1-006 Env (HIV-1)
[20] = biological target: HIV-1 MGRM-D-018 Env (HIV-1)
[21] = biological target: HIV-1 APV_13 Env on pseudovirus (HIV-1)
[22] = biological target: HIV-1 94UG114 Env (HIV-1)
[23] = biological target: HIV-1 MGRM-Chronic-B-012 Env on pseudovirus (HIV-1)
[24] = biological target: HIV-1 IAVI-C22 Env (HIV-1)
[25] = biological target: HIV-1 MGRM-F1-022 Env (HIV-1)
[26] = biological target: HIV-1 MGRM-D-004 Env (HIV-1)
[27] = biological target: HIV-1 MGRM-G-013 Env (HIV-1)
[28] = biological target: HIV-1 MGRM-D-020 Env (HIV-1)
[29] = biological target: HIV-1 MGRM-F1-020 Env (HIV-1)
[30] = biological target: HIV-1 MGRM-G-016 Env (HIV-1)
[31] = biological target: HIV-1 MGRM-G-011 Env (HIV-1)
HIV-1 APV-13 Env (HIV-1) = biological target: HIV-1 APV-13 Env (HIV-1)
[32] = biological target: HIV-1 MGRM-AE-003 Env (HIV-1)
[33] = biological target: HIV-1 92UG024 Env (HIV-1)
[34] = biological target: HIV-1 MGRM-Chronic-B-003 Env on pseudovirus (HIV-1)
[35] = biological target: HIV-1 MGRM-F1-023 Env (HIV-1)
[36] = biological target: HIV-1 SF162 Env on pseudovirus (HIV-1) (UniProt P19550)
[37] = biological target: HIV-1 MGRM-AE-005 Env (HIV-1)
[38] = biological target: HIV-1 MGRM-C-001 Env on pseudovirus (HIV-1)
[39] = biological target: HIV-1 MGRM-G-009 Env (HIV-1)
[40] = biological target: HIV-1 MGRM-Chronic-B-020 Env on pseudovirus (HIV-1)
[41] = biological target: HIV-1 LAVI_C3 Env on pseudovirus (HIV-1)
[42] = biological target: HIV-1 MGRM-D-019 Env (HIV-1)
[43] = biological target: HIV-1 MGRM-F1-012 Env (HIV-1)
[44] = biological target: HIV-1 THR0.18 (Acute) Env on pseudovirus (HIV-1)
[45] = biological target: HIV-1 MGRM-G-024 Env (HIV-1)
[46] = biological target: HIV-1 MGRM-AG-001 Env (HIV-1)
[47] = biological target: HIV-1 TRJ0.58 (Acute) Env on pseudovirus (HIV-1)
[48] = biological target: HIV-1 MGRM-Chronic-B-023 Env on pseudovirus (HIV-1)
[49] = biological target: HIV-1 MGRM-Chronic-B-008 Env on pseudovirus (HIV-1)

With 2G12 (antibody) the IC50 (µg/ml), pseudovirus neutralization [1] was > 50 µg/mL, the IC50 (µg/ml), pseudovirus neutralization [2] was > 50 µg/mL and the neutralization IC50 [2] was > 50 µg/mL. For the same substance, the neutralization IC90 [2] was > 50 µg/mL, the IC50 (µg/ml), pseudovirus neutralization [3] was > 50 µg/mL and the neutralization IC50 (HIV-1 APV-17 Env (HIV-1)) was > 50 µg/mL. For the same substance, the IC50 [4] was 0.55 µg/mL, the IC50 (µg/ml), pseudovirus neutralization [5] was > 50 µg/mL and the IC50 (µg/ml), pseudovirus neutralization [6] was > 50 µg/mL. The IC50 [7] was 1.75 µg/mL, the IC50 [8] was > 50 µg/mL and the IC50 (µg/ml), pseudovirus neutralization [9] was > 50 µg/mL. For the same substance, the IC50 (µg/ml), pseudovirus neutralization [10] was > 50 µg/mL, the IC50 [11] was > 50 µg/mL and the IC50 [12] was 3.85 µg/mL. The IC50 (µg/ml), pseudovirus neutralization [13] was > 50 µg/mL, the IC50 [14] was > 50 µg/mL and the IC50 (µg/ml), pseudovirus neutralization [15] was 31.9 µg/mL. For the same substance, the IC50 [16] was > 50 µg/mL, the IC50 (pseudovirus neutralization) [17] was > 50 µg/mL and the IC50 (µg/ml), pseudovirus neutralization [18] was > 50 µg/mL. For the same substance, the IC50 (pseudovirus neutralization) [19] was > 50 µg/mL, the IC50 (µg/ml), pseudovirus neutralization [20] was 0.12 µg/mL and the IC50 [21] was 9.24 µg/mL. The IC50 (µg/ml), pseudovirus neutralization [22] was 13.9 µg/mL, the IC50 [23] was 0.22 µg/mL and the neutralization IC50 [24] was > 50 µg/mL. The neutralization IC90 [24] was > 50 µg/mL, the IC50 (pseudovirus neutralization) [25] was > 50 µg/mL and the IC50 (µg/ml), pseudovirus neutralization [26] was > 50 µg/mL. The IC50 (µg/ml), pseudovirus neutralization [27] was > 50 µg/mL, the IC50 (µg/ml), pseudovirus neutralization [28] was > 50 µg/mL and the IC50 (pseudovirus neutralization) [29] was > 50 µg/mL. For the same substance, the IC50 (µg/ml), pseudovirus neutralization [30] was > 50 µg/mL, the IC50 (µg/ml), pseudovirus neutralization [31] was > 50 µg/mL and the neutralization IC50 (HIV-1 APV-13 Env (HIV-1)) was 23.9 µg/mL. The IC50 (µg/ml), pseudovirus neutralization [32] was > 50 µg/mL, the IC50 (µg/ml), pseudovirus neutralization [33] was 0.42 µg/mL and the neutralization IC50 [33] was 0.59 µg/mL. It also gave a neutralization IC90 [33] of 7.57 µg/mL, an IC50 [34] of 0.06 µg/mL and an IC50 (pseudovirus neutralization) [35] of 9.23 µg/mL. For the same substance, the IC50 [36] was 1.67 µg/mL, the IC50 (µg/ml), pseudovirus neutralization [37] was > 50 µg/mL and the IC50 [38] was 2.93 µg/mL. The IC50 (µg/ml), pseudovirus neutralization [39] was > 50 µg/mL, the IC50 [40] was 0.2 µg/mL and the IC50 [41] was > 50 µg/mL. For the same substance, the IC50 (µg/ml), pseudovirus neutralization [42] was > 50 µg/mL, the IC50 (pseudovirus neutralization) [43] was 1.81 µg/mL and the IC50 [44] was > 50 µg/mL. The IC50 (µg/ml), pseudovirus neutralization [45] was > 50 µg/mL, the IC50 (µg/ml), pseudovirus neutralization [46] was 0.69 µg/mL and the IC50 [47] was > 50 µg/mL. The IC50 [48] was 0.16 µg/mL and the IC50 [49] was 0.55 µg/mL.

In the case of 1495_C14 (PGC14) (antibody), the IC50 (µg/ml), pseudovirus neutralization [1] is reported as > 50 µg/mL, the IC50 (µg/ml), pseudovirus neutralization [2] is reported as > 50 µg/mL and the neutralization IC50 [2] is reported as > 50 µg/mL. The IC50 (µg/ml), pseudovirus neutralization [3] was > 50 µg/mL, the neutralization IC50 (HIV-1 APV-17 Env (HIV-1)) was > 50 µg/mL and the IC50 [4] was 6 µg/mL. The IC50 (µg/ml), pseudovirus neutralization [5] was > 50 µg/mL, the IC50 (µg/ml), pseudovirus neutralization [6] was > 50 µg/mL and the IC50 [7] was > 50 µg/mL. The IC50 [8] was > 50 µg/mL, the IC50 (µg/ml), pseudovirus neutralization [9] was > 50 µg/mL and the IC50 (µg/ml), pseudovirus neutralization [10] was > 50 µg/mL. The IC50 [11] was > 50 µg/mL, the IC50 [12] was 35 µg/mL and the IC50 (µg/ml), pseudovirus neutralization [13] was > 50 µg/mL. The IC50 [14] was 25 µg/mL, the IC50 (µg/ml), pseudovirus neutralization [15] was > 50 µg/mL and the IC50 [16] was > 50 µg/mL. The IC50 (pseudovirus neutralization) [17] was > 50 µg/mL, the IC50 (µg/ml), pseudovirus neutralization [18] was > 50 µg/mL and the IC50 (pseudovirus neutralization) [19] was > 50 µg/mL. The IC50 (µg/ml), pseudovirus neutralization [20] was > 50 µg/mL, the IC50 [21] was > 50 µg/mL and the IC50 (µg/ml), pseudovirus neutralization [22] was > 50 µg/mL. The IC50 [23] was > 50 µg/mL, the neutralization IC50 [24] was 9.5 µg/mL and the IC50 (pseudovirus neutralization) [25] was > 50 µg/mL. The IC50 (µg/ml), pseudovirus neutralization [26] was > 50 µg/mL, the IC50 (µg/ml), pseudovirus neutralization [27] was > 50 µg/mL and the IC50 (µg/ml), pseudovirus neutralization [28] was > 50 µg/mL. The IC50 (pseudovirus neutralization) [29] was > 50 µg/mL, the IC50 (µg/ml), pseudovirus neutralization [30] was > 50 µg/mL and the IC50 (µg/ml), pseudovirus neutralization [31] was > 50 µg/mL. For the same substance, the neutralization IC50 (HIV-1 APV-13 Env (HIV-1)) was > 50 µg/mL, the IC50 (µg/ml), pseudovirus neutralization [32] was > 50 µg/mL and the IC50 (µg/ml), pseudovirus neutralization [33] was > 50 µg/mL. The neutralization IC50 [33] was > 50 µg/mL, the IC50 [34] was > 50 µg/mL and the IC50 (pseudovirus neutralization) [35] was > 50 µg/mL. For the same substance, the IC50 [36] was < 0.0025 µg/mL, the IC50 (µg/ml), pseudovirus neutralization [37] was > 50 µg/mL and the IC50 [38] was > 50 µg/mL. The IC50 (µg/ml), pseudovirus neutralization [39] was > 50 µg/mL, the IC50 [40] was > 50 µg/mL and the IC50 [41] was 12 µg/mL. For the same substance, the IC50 (µg/ml), pseudovirus neutralization [42] was > 50 µg/mL, the IC50 (pseudovirus neutralization) [43] was > 50 µg/mL and the IC50 [44] was > 50 µg/mL. For the same substance, the IC50 (µg/ml), pseudovirus neutralization [45] was > 50 µg/mL, the IC50 (µg/ml), pseudovirus neutralization [46] was > 50 µg/mL and the IC50 [47] was > 50 µg/mL. The IC50 [48] was > 50 µg/mL and the IC50 [49] was > 50 µg/mL.

Source: patent US20160264649A1
